Target: T1, RecA (UniProt P0A7G6)
T1 sequence: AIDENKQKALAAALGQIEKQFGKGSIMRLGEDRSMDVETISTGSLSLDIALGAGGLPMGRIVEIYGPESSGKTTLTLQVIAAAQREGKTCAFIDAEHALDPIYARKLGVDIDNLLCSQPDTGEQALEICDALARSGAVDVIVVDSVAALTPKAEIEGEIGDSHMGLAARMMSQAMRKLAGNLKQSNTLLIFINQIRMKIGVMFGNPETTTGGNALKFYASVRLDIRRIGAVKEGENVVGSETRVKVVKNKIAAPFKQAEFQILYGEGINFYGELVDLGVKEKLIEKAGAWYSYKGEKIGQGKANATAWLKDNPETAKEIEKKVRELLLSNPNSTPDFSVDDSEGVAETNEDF
Assay: EMSA
Details: 5'-acridine; C5-propynyl-dU, 5-methyl-dC, 7-deaza-dG in TFO; triethyleneglycol spacer between TFO and adapter; with Y0Gorec plasmid, 15 uM RecA, ATPgammaS, ADP, 12.5 mM MgCl2; 22% without RecA; 100% of complex associated with plasmid in RecA reaction

“NNNNNTNTNNNGNGGNGCGCGTGGCCAGC [TFO1-S + R (GOREC with homologous 40-nt R)]” gave an activity (% joint molecules in 5 min) of 80.

Source: patent publication US20030003547
